The target in this assay is A beta oligomer (synthetic A beta1-40, HCl form, 0.1 mg/ml in PBS, incubated at 37 degrees C for one hour) (UniProt P05067). As to the kind of experiment: SPR (Biacore 3000). On the technique in general: Surface plasmon resonance follows binding to a sensor surface in real time, without labels.

Consider Anti-A beta antibody 6E10, for which the Kd (as a rule, the equilibrium constant for the complex coming apart) amounted to 2.91 nM; the off-rate constant (koff) (in general, the first-order rate constant of dissociation) amounted to 0.000168 s⁻¹; the kon (commonly the rate constant with which the complex forms) is 57800 M⁻¹ s⁻¹.

The record behind these values is patent US20120177664A1.
